Results on two proteins are retold here after patent publication US20050032185.

In data set [1] the target is GST-PKBα (full length human protein kinase Bα with N-terminal glutathione S-transferase, from unstimulated 293 cells) [GST: P08515].
Sequence of GST-PKBα (full length human protein kinase Bα with N-terminal glutathione S-transferase, from unstimulated 293 cells) [GST: P08515] (P08515 whole entry, looked up): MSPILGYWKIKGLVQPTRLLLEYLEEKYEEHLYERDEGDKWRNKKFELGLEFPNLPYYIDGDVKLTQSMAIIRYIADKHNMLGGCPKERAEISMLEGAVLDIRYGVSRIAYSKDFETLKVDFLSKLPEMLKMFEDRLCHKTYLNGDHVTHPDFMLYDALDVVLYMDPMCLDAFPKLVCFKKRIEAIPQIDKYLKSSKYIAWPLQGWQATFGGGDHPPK

Sequence of protein kinase Bγ (Q9Y243 2-479): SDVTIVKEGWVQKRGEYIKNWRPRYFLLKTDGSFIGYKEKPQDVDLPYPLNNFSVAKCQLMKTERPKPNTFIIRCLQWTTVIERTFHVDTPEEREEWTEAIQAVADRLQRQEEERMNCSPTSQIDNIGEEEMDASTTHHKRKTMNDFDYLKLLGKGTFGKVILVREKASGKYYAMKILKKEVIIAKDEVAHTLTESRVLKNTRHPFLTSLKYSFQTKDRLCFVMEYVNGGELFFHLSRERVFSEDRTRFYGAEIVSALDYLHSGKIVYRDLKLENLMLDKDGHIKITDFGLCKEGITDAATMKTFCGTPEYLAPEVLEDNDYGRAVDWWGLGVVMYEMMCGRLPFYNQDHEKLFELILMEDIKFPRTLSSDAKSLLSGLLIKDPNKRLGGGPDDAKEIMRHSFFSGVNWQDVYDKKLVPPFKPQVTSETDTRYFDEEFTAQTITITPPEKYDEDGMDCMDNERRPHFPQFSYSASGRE

B1: GST-DSTPK61 (residues 1-752 of Drosophila Serine/Threonine Protein Kinase-61, expressed in E. coli) (protein)
chain: MKCKSWSNKINNYVVRKIKSIKINGTQQQLQLPGSGASGIAAAAVITVASDCGENCSSNGTEHQQHFNIATTTATSATEATMPAMAKEKASATVSLGESNFRDINLKDLAVVVEAASRLHHQQNVCGCGAVSSTENNNNSRYGSSKYLTNGHTSPLAAAVASNSSSVATTPHCRMLHNCSLQQYQNDIRQQTEILDMLRQQHQQGYQSQQQQQQPQQQQEQQQQQEQSQQQQQLQNPAPRRSPNDFIFGRYIGEGSYSIVYLAVDIHSRREYAIKVCEKRLILRERKQDYIKREREVMHQMTNVPGFVNLSCTFQDQRSLYFVMTYARKGDMLPYINRVGSFDVACTRHYAAELLLACEHMHRRNVVHRDLKPENILLDEDMHTLIADFGSAKVMTAHERALATEHCSEQRRSNSDEDDEDSDRLENEDEDFYDRDSEELDDGDDEQQQEEMDSPRHRQRRYNRHRKASFVGTAQYVSPEVLQNGPITPAADLWALGCIVYQMIAGLPPFRGSNDYVIFKEILDCAVDFPQGFDKDAEDLVRKLLRVDPRDRLGAQDEFGYYESIRAHPFFAGIDWQTLRQQTPPPIYPYLPGVSQDEDFRSSYTVPGDLEPGLDERQISRLLSAELGVGSSVAMPVKRSTAKNSFDLNDAEKLQRLEQQKTDKWHVFADGEVILKKGFVNKRKGLFARKRMLLLTTGPRLIYIDPVQMIKKGEIPWSPDLRAEYKNFKIFFVHTPNRTYYLDDPEGYAIHW
As for B1, in data set [1], the “increase in GST-PKBα activity at maximal phosphorylation” value was “paralleled by a 35 fold increase in activity”, the “maximal phosphorylation of GST-PKBα (mol phosphate per mol protein)” value was “the phosphorylation of GST-PKBα reached 0.75 mol phosphate per mol protein” and the “specific activity towards GST-PKBα in the presence of PtdIns(3,4,5)P3” value is given as “bacterially expressed GST-DST PK61 (280 U/mg)”.

B2: PDK1 (form and source not specified in the sentence) (enzyme, UniProt O15530 1-556, looked up, species assumed)
3-phosphoinositide-dependent protein kinase 1: MARTTSQLYDAVPIQSSVVLCSCPSPSMVRTQTESSTPPGIPGGSRQGPAMDGTAAEPRPGAGSLQHAQPPPQPRKKRPEDFKFGKILGEGSFSTVVLARELATSREYAIKILEKRHIIKENKVPYVTRERDVMSRLDHPFFVKLYFTFQDDEKLYFGLSYAKNGELLKYIRKIGSFDETCTRFYTAEIVSALEYLHGKGIIHRDLKPENILLNEDMHIQITDFGTAKVLSPESKQARANSFVGTAQYVSPELLTEKSACKSSDLWALGCIIYQLVAGLPPFRAGNEYLIFQKIIKLEYDFPEKFFPKARDLVEKLLVLDATKRLGCEEMEGYGPLKAHPFFESVTWENLHQQTPPKLTAYLPAMSEDDEDCYGNYDNLLSQFGCMQVSSSSSSHSLSASDTGLPQRSGSNIEQYIHDLDSNSFELDLQFSEDEKRLLLEKQAGGNPWHQFVENNLILKMGPVDKRKGLFARRRQLLLTEGPHLYYVDPVNKVLKGEIPWSQELRPEAKNFKTFFVHTPNRTYYLMDPSGNAHKWCRKIQEVWRQRYQSHPDAAVQ
With B2, the phosphorylation entry in the data set on p70 S6 kinase was “PDK1 has been shown by us to phosphorylate p70 S6 kinase in the absence of InsPtd(3,4,5)P3”. The phosphorylation and activation result is “PDK1 phosphorylates and activates not only PKBα but also PKBβ and PKBγ” in the data set with protein kinase Bβ; “PDK1 phosphorylates and activates not only PKBα but also PKBβ and PKBγ” in the data set on protein kinase Bγ.
